From patent US20240392004A1 (IMMUNOWAKE, published 2024)

T1: human IL-2 receptor (IL-2Rα, IL-2Rβ, IL-2Rγ) (human, UniProt P01589 22-272; P14784 27-551; P31785 23-369)
T1 sequence (looked up) 1: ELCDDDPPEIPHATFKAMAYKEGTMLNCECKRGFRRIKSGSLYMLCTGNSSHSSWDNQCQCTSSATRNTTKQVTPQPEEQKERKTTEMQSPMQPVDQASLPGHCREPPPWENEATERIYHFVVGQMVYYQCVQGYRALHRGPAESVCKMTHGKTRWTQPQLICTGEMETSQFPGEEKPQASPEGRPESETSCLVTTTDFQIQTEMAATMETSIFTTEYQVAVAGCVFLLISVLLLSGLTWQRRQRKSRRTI
T1 sequence (looked up) 2: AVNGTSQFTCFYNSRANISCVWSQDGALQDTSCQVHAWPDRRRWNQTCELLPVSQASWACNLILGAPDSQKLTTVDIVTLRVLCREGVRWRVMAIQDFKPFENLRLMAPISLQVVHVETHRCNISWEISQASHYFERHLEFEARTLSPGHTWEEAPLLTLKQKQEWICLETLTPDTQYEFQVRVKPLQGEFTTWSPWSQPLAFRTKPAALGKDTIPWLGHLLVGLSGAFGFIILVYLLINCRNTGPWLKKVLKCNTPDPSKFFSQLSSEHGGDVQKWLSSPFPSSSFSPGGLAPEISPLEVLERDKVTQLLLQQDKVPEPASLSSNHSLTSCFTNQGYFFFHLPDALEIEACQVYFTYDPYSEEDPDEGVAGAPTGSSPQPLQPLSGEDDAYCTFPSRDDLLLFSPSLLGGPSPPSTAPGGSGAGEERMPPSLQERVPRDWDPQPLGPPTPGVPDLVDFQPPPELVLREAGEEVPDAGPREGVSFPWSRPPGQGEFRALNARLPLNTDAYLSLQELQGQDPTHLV
T1 sequence (looked up) 3: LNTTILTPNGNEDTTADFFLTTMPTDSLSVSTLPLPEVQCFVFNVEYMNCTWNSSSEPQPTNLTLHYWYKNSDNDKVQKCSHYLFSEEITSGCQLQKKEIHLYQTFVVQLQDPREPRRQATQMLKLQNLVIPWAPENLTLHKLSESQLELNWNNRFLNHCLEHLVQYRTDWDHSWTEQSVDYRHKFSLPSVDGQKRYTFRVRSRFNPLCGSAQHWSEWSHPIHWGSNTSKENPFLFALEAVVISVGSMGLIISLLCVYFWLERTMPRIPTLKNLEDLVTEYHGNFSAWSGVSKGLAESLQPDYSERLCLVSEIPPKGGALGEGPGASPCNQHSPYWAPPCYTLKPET


Legend:
[1] = target: human PD-1 on cells (HEK-PD-1 reporter cells; activated PBMC) (human, UniProt Q15116 25-288); test: cell-based or functional assay
human PD-1 on cells (HEK-PD-1 reporter cells; activated PBMC), sequence (Q15116 25-288): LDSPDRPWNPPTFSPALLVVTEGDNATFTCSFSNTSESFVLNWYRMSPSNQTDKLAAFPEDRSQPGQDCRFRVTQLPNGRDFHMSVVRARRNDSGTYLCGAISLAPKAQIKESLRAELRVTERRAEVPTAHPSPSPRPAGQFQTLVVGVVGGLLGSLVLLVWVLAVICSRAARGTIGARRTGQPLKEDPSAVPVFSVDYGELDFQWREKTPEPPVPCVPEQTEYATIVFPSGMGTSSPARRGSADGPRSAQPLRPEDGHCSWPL

[2] = target: T1, human IL-2 receptor (IL-2Rα, IL-2Rβ, …); test: cell-based or functional assay

| IL-2 signal transduction, HEK-IL-2-PD-1 [1] | IL-2 signal transduction, HEK-IL-2 [2] | Binder |
| --- | --- | --- |
| 76% | 16% | IL-2(R38D/K43E/E61R)/PD-L1(mut2)-Fc (Fc fusion) chain 1: FTVTVPKDLYVVEYGSNMTIECKFPVEKQLDLAALQVYWMMEDKNIIQFVHGEEDLKVQHSSYRQRARLLKDQLSLGNAALQITDVKLQDAGVYTCLIAYKGADYKRITVKVNAPYNKINQRILVVDPVTSEHELTCQAEGYPKAEVIWTSSDHQVLSGKTTTTNSKREEKLFNVTSTLRINTTTNEIFYCTFRRLDPEENHTAELVIPELPLAHPPNERGGGGSGGGDKTHTCPPCPAPEDEGGPSVFLFPPKPKDTLMISRTPEVTCVVVDVSHEDPEVKFNWYVDGVEVHNAKTKPREEQYNSTYRVVSVLTVLHQDWLNGKEYKCKVSNKALPAPIEKTISKAKGQPREPQVYVYPPSREEMTKNQVSLTCLVKGFYPSDIAVEWESNGQPENNYKTTPPVLDEDGSFALVSKLTVDKSRWQQGNVFSCSVMHEALHNHYTQKSLSLSPGK chain 2: FTVTVPKDLYVVEYGSNMTIECKFPVEKQLDLAALQVYWMMEDKNIIQFVHGEEDLKVQHSSYRQRARLLKDQLSLGNAALQITDVKLQDAGVYTCLIAYKGADYKRITVKVNAPYNKINQRILVVDPVTSEHELTCQAEGYPKAEVIWTSSDHQVLSGKTTTTNSKREEKLFNVTSTLRINTTTNEIFYCTFRRLDPEENHTAELVIPELPLAHPPNERGGGSGAPTSSSTKKTQLQLEHLLLDLQMILNGINNYKNPKLTDMLTFEFYMPKKATELKHLQCLERELKPLEEVLNLAQSKNFHLRPRDLISNINVIVLELKGSETTFMCEYADETATIVEFLNRWITFCQSIISTLTGGGGSGGGDKTHTCPPCPAPEKKGGPSVFLFPPKPKDTLMISRTPEVTCVVVDVSHEDPEVKFNWYVDGVEVHNAKTKPREEQYNSTYRVVSVLTVLHQDWLNGKEYKCKVSNKALPAPIEKTISKAKGQPREPQVYVLPPSREEMTKNQVSLLCLVKGFYPSDIAVEWESNGQPENRYMTWPPVLDSDGSFFLYSKLTVDKSRWQQGNVFSCSVMHEALHNHYTQKSLSLSPGK |
| 35% | 4% | IL-2(L18R/Q22E/R38D/K43E/E61R)/PD-L1(mut2)-Fc (Fc fusion) chain 1: FTVTVPKDLYVVEYGSNMTIECKFPVEKQLDLAALQVYWMMEDKNIIQFVHGEEDLKVQHSSYRQRARLLKDQLSLGNAALQITDVKLQDAGVYTCLIAYKGADYKRITVKVNAPYNKINQRILVVDPVTSEHELTCQAEGYPKAEVIWTSSDHQVLSGKTTTTNSKREEKLFNVTSTLRINTTTNEIFYCTFRRLDPEENHTAELVIPELPLAHPPNERGGGGSGGGDKTHTCPPCPAPEDEGGPSVFLFPPKPKDTLMISRTPEVTCVVVDVSHEDPEVKFNWYVDGVEVHNAKTKPREEQYNSTYRVVSVLTVLHQDWLNGKEYKCKVSNKALPAPIEKTISKAKGQPREPQVYVYPPSREEMTKNQVSLTCLVKGFYPSDIAVEWESNGQPENNYKTTPPVLDEDGSFALVSKLTVDKSRWQQGNVFSCSVMHEALHNHYTQKSLSLSPGK chain 2: FTVTVPKDLYVVEYGSNMTIECKFPVEKQLDLAALQVYWMMEDKNIIQFVHGEEDLKVQHSSYRQRARLLKDQLSLGNAALQITDVKLQDAGVYTCLIAYKGADYKRITVKVNAPYNKINQRILVVDPVTSEHELTCQAEGYPKAEVIWTSSDHQVLSGKTTTTNSKREEKLFNVTSTLRINTTTNEIFYCTFRRLDPEENHTAELVIPELPLAHPPNERGGGSGAPTSSSTKKTQLQLEHLRLDLEMILNGINNYKNPKLTDMLTFEFYMPKKATELKHLQCLERELKPLEEVLNLAQSKNFHLRPRDLISNINVIVLELKGSETTFMCEYADETATIVEFLNRWITFCQSIISTLTGGGGSGGGDKTHTCPPCPAPEKKGGPSVFLFPPKPKDTLMISRTPEVTCVVVDVSHEDPEVKFNWYVDGVEVHNAKTKPREEQYNSTYRVVSVLTVLHQDWLNGKEYKCKVSNKALPAPIEKTISKAKGQPREPQVYVLPPSREEMTKNQVSLLCLVKGFYPSDIAVEWESNGQPENRYMTWPPVLDSDGSFFLYSKLTVDKSRWQQGNVFSCSVMHEALHNHYTQKSLSLSPGK |
